Data taken from article PMC12207370, “Macrocyclic Peptide Probes for Immunomodulatory Protein CD59: Potent Modulators of Bacterial Toxin Activity and Antibody‐Dependent Cytotoxicity” (Angewandte Chemie (International Ed. in English), 2025).

Molecular target: T1, biotinylated CD59 (Homo sapiens, UniProt P13987)
T1 construct: Recombinant soluble human CD59 with an additional C-terminal cysteine residue
T1 sequence (P13987 26-102 limits assumed): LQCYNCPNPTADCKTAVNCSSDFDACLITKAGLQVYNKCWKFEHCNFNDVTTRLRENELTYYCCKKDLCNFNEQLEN
Assay: mRNA-display cyclic peptide screen against CD59-biotin, NGS abundance after 6th selection round
Details: for Counts (raw counts for peptide sequence), Seq I: NGS sample Seq I; for Counts (raw counts for peptide sequence), Seq I / Counts (raw counts for peptide sequence), Seq II / Counts Seq I / Counts Seq II: sheet R6 (6th selection round); for Counts (raw counts for peptide sequence), Seq II: NGS sample Seq II; for Percentage of the pool, averaged across the two sequencing samples: average of Seq I and Seq II; for Percentage of the pool, averaged across the two sequencing samples / Percentage of the pool, Seq I / Percentage of the pool, Seq II / Percentage Seq I / Percentage Seq II / Percentage Average: sheet R6; for Percentage of the pool, Seq I: counts normalised by total counts of NGS sample Seq I; for Percentage of the pool, Seq II: counts normalised by total counts of NGS sample Seq II; for Percentage Seq I: counts normalised by total counts of sample Seq I; for Percentage Seq I / Percentage Seq II: percentage of the pool; for Percentage Seq II: counts normalised by total counts of sample Seq II; for Percentage Average: percentage of the pool averaged across the two sequencing samples; for Counts Seq I / Counts Seq II: raw NGS counts of peptide sequence; for Counts Seq I: sequencing sample Seq I; for Counts Seq II: sequencing sample Seq II
From the text: To discover novel non‐protein CD59 ligands, we screened a library of 10^12 cyclic peptides against CD59 using mRNA‐display (Figure 2a).^[ [23], [24], [25], [26], [27], [28], [29] ^] Briefly, an mRNA library was designed in which the start codon was reprogrammed from Met to N‐chloroacetyl‐D‐Tyr (ClAc‐D‐Tyr), followed by 10–12 randomly encoded natural amino acids, a Cys residue, a (GlySer)3 linker, and a stop codon. […] The total library diversity was 1.51 × 10^13 molecules, comprising 5.02 × 10^12 molecules of each macrocycle size, covering a subset of the maximum theoretical diversity of this library design. Following in vitro translation, ClAc‐D‐Tyr spontaneously reacts with either the C‐terminal Cys or a Cys in the random region, yielding macrocyclic thioether peptides. Hits from the library were identified through iterative enrichment and amplification against biotinylated CD59, then immobilized on streptavidin beads. Fifteen hit sequences (CP‐01 to CP‐15), enriched with abundance >1% relative to the total pool of recovered binders after the 6th round of selection, were synthesized by solid phase peptide synthesis (SPPS), without the (Gly‐Ser)3 linker.
Figure 2 Discovery of macrocyclic peptide ligands with nanomolar CD59 affinity using mRNA display. a) The selection process. PCR = polymerase chain reaction, SPPS = solid phase peptide synthesis. b) Table showing details of the peptides with nanomolar affinity for CD59 as well as the binding affinity of the lead inhibitor of CD59, rILYd4. K D values are presented as the average of three technical replicates ± SEM. Structures of all peptides and SPR sensograms are presented in Figures S1 and S2. *indicates the presented sequences are the variable regions of these cyclic peptides; each is flanked by an N‐terminal Ac‐D‐Tyr cyclized to a C‐terminal Cys. R6 abundance (%) is defined as (the given number of NGS reads for a given sequence/the total number of reads of unique sequences observed in NGS)*100 following the 6th selection round. c) Representative sensogram of the interaction between CP‐06 with immobilized CD59 by SPR analysis. Inset showing the equilibrium binding curve of CP‐06 to CD‐59. Below in the box are the association and dissociation rate constants of CP‐06. Concentrations are plotted in descending order from 800‐3.1 nM in line with their position on the legend. […] (nM)'; the box with Kon/Koff has no label of its own / ILYd4: the label may be cut off at the left edge (possibly 'rILYd4') / CP-02, KD: 15.3 ± 0.2, small print, 3 or 8 uncertain / CP-03, KD: 23.4 ± 0.7, small print / CP-06, KD: 11.3 ± 0.0, small print, 3 or 8 uncertain / CP-13, KD: 10.8 ± 0.7, small print, 8 or 6 uncertain / ILYd4, KD: 48.3 ± 1.1, small print, 8 and 3 uncertain
The mRNA-display cyclic peptide screen was performed against CD59-biotin by T.E.M: DNA templates for transcription were generated by PCR in a similar manner to that previously described.^2 RNA oligonucleotides were transcribed from the DNA templates using T7 RNA polymerase and purified by phenol/chloroform extraction followed by ethanol precipitation. Oligonucleotide concentrations were determined spectroscopically by absorbance at 260 nm. In the first selection round a 1:1:1 molar ratio of NNK10/NNK11/NNK12 was used. The procedure for selection rounds 2-6 is described below; round 1 was conducted at twice the scale.
RNA encoding for the peptide library ligated to a puromycin-modified oligonucleotide was […] (final [RNA] = 2.5 µM) using a customised PURE express kit (lacking release factor 1 and methionine, supplemented with […] initiator tRNA acylated with N-chloroacetyl-d-tyrosine prepared as previously described)^3 in a final volume of 5.6 µL for 1 hour at 37 °C.
This mixture was incubated at 42 °C for 1 hour before being diluted to 500 µL with PBS (10 mM Na-PO4 pH 7.4, 2.7 mM KCl, 137 mM NaCl) and 0.5 µL taken for subsequent use in qPCR. […]

Sequence: CFSARAVLDGGW
- Counts (raw counts for peptide sequence), Seq I: 59
- Counts (raw counts for peptide sequence), Seq II: 3
- Percentage of the pool, averaged across the two sequencing samples: 0.010%
- Percentage of the pool, Seq I: 0.013%
- Percentage of the pool, Seq II: 0.007%

Sequence: CFSARTDSSGT
- Percentage Seq I: 0.053%
- Percentage Seq II: 0.039%
- Percentage Average: 0.046%
- Counts Seq I: 231
- Counts Seq II: 17

Sequence: CFSHRNPTDSI
- Counts (raw counts for peptide sequence), Seq I: 32
- Counts (raw counts for peptide sequence), Seq II: 6
- Percentage of the pool, averaged across the two sequencing samples: 0.011%
- Percentage of the pool, Seq I: 0.007%
- Percentage of the pool, Seq II: 0.014%

Sequence: CFSHRPGPSI
- Percentage Seq I: 0.147%
- Percentage Seq II: 0.132%
- Percentage Average: 0.140%
- Counts Seq I: 642
- Counts Seq II: 57

Sequence: CFSHRRLEYGV
- Percentage Seq I: 0.045%
- Percentage Seq II: 0.046%
- Percentage Average: 0.046%
- Counts Seq I: 197
- Counts Seq II: 20

Sequence: CFSHRSNSDGI
- Percentage Seq I: 0.092%
- Percentage Seq II: 0.081%
- Percentage Average: 0.087%
- Counts Seq I: 404
- Counts Seq II: 35

Sequence: CFSKRIAPGAQ
- Percentage Seq I: 0.020%
- Percentage Seq II: 0.019%
- Percentage Average: 0.019%
- Counts Seq I: 88
- Counts Seq II: 8

Sequence: CFSNRISGPAV
- Percentage Seq I: 0.197%
- Percentage Seq II: 0.214%
- Percentage Average: 0.205%
- Counts Seq I: 864
- Counts Seq II: 92

Sequence: CFSPRVTEHST
- Counts (raw counts for peptide sequence), Seq I: 62
- Counts (raw counts for peptide sequence), Seq II: 8
- Percentage of the pool, averaged across the two sequencing samples: 0.016%
- Percentage of the pool, Seq I: 0.014%
- Percentage of the pool, Seq II: 0.019%

Sequence: CFSQRLDRTSS
- Percentage Seq I: 0.027%
- Percentage Seq II: 0.026%
- Percentage Average: 0.026%
- Counts Seq I: 116
- Counts Seq II: 11

Sequence: CFSRRLAAGAI
- Counts (raw counts for peptide sequence), Seq I: 35
- Counts (raw counts for peptide sequence), Seq II: 5
- Percentage of the pool, averaged across the two sequencing samples: 0.010%
- Percentage of the pool, Seq I: 0.008%
- Percentage of the pool, Seq II: 0.012%

Sequence: CFSRRLTAGAI
- Percentage Seq I: 2.075%
- Percentage Seq II: 2.091%
- Percentage Average: 2.083%
- Counts Seq I: 9078
- Counts Seq II: 901

Sequence: CFSRRLTAGAS
- Percentage Seq I: 0.024%
- Percentage Seq II: 0.028%
- Percentage Average: 0.026%
- Counts Seq I: 106
- Counts Seq II: 12

Sequence: CFSRRLTAGAT
- Percentage Seq I: 0.045%
- Percentage Seq II: 0.035%
- Percentage Average: 0.040%
- Counts Seq I: 195
- Counts Seq II: 15

Sequence: CFSRRLTAGAV
- Percentage Seq I: 0.031%
- Percentage Seq II: 0.030%
- Percentage Average: 0.030%
- Counts Seq I: 134
- Counts Seq II: 13

Sequence: CFSRRLTEGAI
- Counts (raw counts for peptide sequence), Seq I: 41
- Counts (raw counts for peptide sequence), Seq II: 5
- Percentage of the pool, averaged across the two sequencing samples: 0.010%
- Percentage of the pool, Seq I: 0.009%
- Percentage of the pool, Seq II: 0.012%

Sequence: CFSRRLTVGAI
- Counts (raw counts for peptide sequence), Seq I: 40
- Counts (raw counts for peptide sequence), Seq II: 6
- Percentage of the pool, averaged across the two sequencing samples: 0.012%
- Percentage of the pool, Seq I: 0.009%
- Percentage of the pool, Seq II: 0.014%

Sequence: CFSRRSTSSQST
- Percentage Seq I: 0.018%
- Percentage Seq II: 0.019%
- Percentage Average: 0.018%
- Counts Seq I: 77
- Counts Seq II: 8

Sequence: CFSRRTSVPNTT
- Percentage Seq I: 0.209%
- Percentage Seq II: 0.190%
- Percentage Average: 0.200%
- Counts Seq I: 914
- Counts Seq II: 82

Sequence: CFSRRVTYPHQV
- Counts (raw counts for peptide sequence), Seq I: 31
- Counts (raw counts for peptide sequence), Seq II: 8
- Percentage of the pool, averaged across the two sequencing samples: 0.013%
- Percentage of the pool, Seq I: 0.007%
- Percentage of the pool, Seq II: 0.019%

Sequence: CFSSRTGTTSV
- Counts (raw counts for peptide sequence), Seq I: 39
- Counts (raw counts for peptide sequence), Seq II: 10
- Percentage of the pool, averaged across the two sequencing samples: 0.016%
- Percentage of the pool, Seq I: 0.009%
- Percentage of the pool, Seq II: 0.023%

Sequence: CFSSRTSLISGV
- Counts (raw counts for peptide sequence), Seq I: 27
- Counts (raw counts for peptide sequence), Seq II: 6
- Percentage of the pool, averaged across the two sequencing samples: 0.010%
- Percentage of the pool, Seq I: 0.006%
- Percentage of the pool, Seq II: 0.014%

Sequence: CFSSRVQSGDT
- Percentage Seq I: 0.214%
- Percentage Seq II: 0.190%
- Percentage Average: 0.202%
- Counts Seq I: 936
- Counts Seq II: 82

Sequence: CFSTRLSRSYGT
- Percentage Seq I: 0.016%
- Percentage Seq II: 0.026%
- Percentage Average: 0.021%
- Counts Seq I: 68
- Counts Seq II: 11

Sequence: CFSWRLGPAEK
- Percentage Seq I: 0.020%
- Percentage Seq II: 0.028%
- Percentage Average: 0.024%
- Counts Seq I: 87
- Counts Seq II: 12

Sequence: CFSYRIRSAYDL
- Percentage Seq I: 0.028%
- Percentage Seq II: 0.030%
- Percentage Average: 0.029%
- Counts Seq I: 124
- Counts Seq II: 13

Sequence: CFTGRLSLDSI
- Percentage Seq I: 0.031%
- Percentage Seq II: 0.039%
- Percentage Average: 0.035%
- Counts Seq I: 134
- Counts Seq II: 17

Sequence: CFTGRLTIDAV
- Counts (raw counts for peptide sequence), Seq I: 26
- Counts (raw counts for peptide sequence), Seq II: 6
- Percentage of the pool, averaged across the two sequencing samples: 0.010%
- Percentage of the pool, Seq I: 0.006%
- Percentage of the pool, Seq II: 0.014%

Sequence: CFTHRLTDFGT
- Percentage Seq I: 0.053%
- Percentage Seq II: 0.070%
- Percentage Average: 0.061%
- Counts Seq I: 230
- Counts Seq II: 30

Sequence: CFTLRLSQTSV
- Percentage Seq I: 0.156%
- Percentage Seq II: 0.160%
- Percentage Average: 0.158%
- Counts Seq I: 682
- Counts Seq II: 69

Sequence: CFTLRVLDVSAV
- Counts (raw counts for peptide sequence), Seq I: 100
- Counts (raw counts for peptide sequence), Seq II: 5
- Percentage of the pool, averaged across the two sequencing samples: 0.017%
- Percentage of the pool, Seq I: 0.023%
- Percentage of the pool, Seq II: 0.012%

Sequence: CFTNRLDNSST
- Percentage Seq I: 0.072%
- Percentage Seq II: 0.067%
- Percentage Average: 0.070%
- Counts Seq I: 314
- Counts Seq II: 29

Sequence: CFTQRIASGSK
- Percentage Seq I: 0.024%
- Percentage Seq II: 0.021%
- Percentage Average: 0.022%
- Counts Seq I: 105
- Counts Seq II: 9

Sequence: CFTYRLSDEPSA
- Percentage Seq I: 0.039%
- Percentage Seq II: 0.016%
- Percentage Average: 0.027%
- Counts Seq I: 169
- Counts Seq II: 7
